Assay results reported in patent US20220125892A1.

Molecular target: mannose-6-phosphate receptor on human neuroblastoma cells (SH-SY5Y) (human)
Experiment: cell-based or functional assay

OxyGCase (uncapped and demannosylated recombinant human glucocerebrosidase variant produced in Yarrowia lipolytica) (enzyme)
KUPTAKE, net M6PR mediated uptake by SH-SY5Y human neuroblastoma cells (4MUbetaGlc activity in lysates, hyperbolic fit): 1.9 nM
